Data from article PMC7948466.

Assays:
[1] = target: DNMT3A full length;p53 (Homo sapiens;Homo sapiens, UniProt Q9Y6K1;P04637 1-912;1-393, |); assay: fluorescence anisotropy; unlabeled H3K4me0 peptide titrated; 50 nM DNA, 1 uM 1:1 complex; FA increases; Fluorescence anisotropy (ex 485 nm, em 520 nm), 5 min incubation at room temperature; binding buffer, salt and pH not given in the material
[2] = target: DNMT3A full length;TDG (Homo sapiens;Homo sapiens, UniProt Q9Y6K1;Q13569 1-912;1-410, |); assay: as above
[3] = target: DNMT3A full length (Homo sapiens, UniProt Q9Y6K1 1-912); assay: fluorescence anisotropy; unlabeled H3K4me0 peptide (1-21) titrated; 50 nM DNA, 1 uM DNMT3A; FA increases; Fluorescence anisotropy (ex 485 nm, em 520 nm), 5 min incubation at room temperature; binding buffer, salt and pH not given in the material

Measured: binding result

Sequence of DNMT3A full length (Q9Y6K1 whole entry): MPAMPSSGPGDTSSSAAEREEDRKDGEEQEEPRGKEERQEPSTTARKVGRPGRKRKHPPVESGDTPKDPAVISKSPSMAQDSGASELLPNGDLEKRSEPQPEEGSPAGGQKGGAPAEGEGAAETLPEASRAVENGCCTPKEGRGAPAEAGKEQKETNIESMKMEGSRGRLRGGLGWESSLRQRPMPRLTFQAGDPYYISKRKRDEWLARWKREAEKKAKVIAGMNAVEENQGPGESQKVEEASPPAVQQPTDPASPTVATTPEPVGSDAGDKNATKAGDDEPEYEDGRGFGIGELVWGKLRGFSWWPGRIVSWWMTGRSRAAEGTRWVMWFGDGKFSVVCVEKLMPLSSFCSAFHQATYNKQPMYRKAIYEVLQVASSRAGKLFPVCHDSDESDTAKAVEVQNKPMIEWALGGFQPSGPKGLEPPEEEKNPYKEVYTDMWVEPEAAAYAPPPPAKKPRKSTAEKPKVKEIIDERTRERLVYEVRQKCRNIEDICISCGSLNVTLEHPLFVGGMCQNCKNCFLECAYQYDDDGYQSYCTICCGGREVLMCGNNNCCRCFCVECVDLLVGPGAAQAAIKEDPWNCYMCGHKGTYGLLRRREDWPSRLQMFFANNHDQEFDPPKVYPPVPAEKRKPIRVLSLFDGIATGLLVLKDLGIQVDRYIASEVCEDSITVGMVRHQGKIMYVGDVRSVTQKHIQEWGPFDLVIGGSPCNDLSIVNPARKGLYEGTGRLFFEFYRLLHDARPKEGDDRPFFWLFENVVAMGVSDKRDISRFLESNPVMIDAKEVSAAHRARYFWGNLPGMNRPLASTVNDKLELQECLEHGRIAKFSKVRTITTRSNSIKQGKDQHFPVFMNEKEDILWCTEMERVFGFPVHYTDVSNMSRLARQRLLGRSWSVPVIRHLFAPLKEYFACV
Sequence of DNMT3A full length;TDG (Q9Y6K1 whole entry, chain 1 of 2): as the sequence (Q9Y6K1 whole entry) above
Sequence of DNMT3A full length;TDG (Q13569 whole entry, chain 2 of 2): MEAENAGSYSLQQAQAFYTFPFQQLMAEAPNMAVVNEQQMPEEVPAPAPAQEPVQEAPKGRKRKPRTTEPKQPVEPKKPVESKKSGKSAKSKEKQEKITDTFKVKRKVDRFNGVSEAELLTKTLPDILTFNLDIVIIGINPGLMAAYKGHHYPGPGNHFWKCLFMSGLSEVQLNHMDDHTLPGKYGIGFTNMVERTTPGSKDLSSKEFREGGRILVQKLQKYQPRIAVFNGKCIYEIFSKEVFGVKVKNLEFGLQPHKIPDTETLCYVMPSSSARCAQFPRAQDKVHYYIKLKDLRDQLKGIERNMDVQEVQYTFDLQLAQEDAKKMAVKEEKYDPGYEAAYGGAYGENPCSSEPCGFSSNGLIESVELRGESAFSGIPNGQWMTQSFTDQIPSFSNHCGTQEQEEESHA

B1: GCbox30 (dsDNA)
DNA 1: TGGATATCTAGGGGCGCTATGATATCT
DNA 2: AGATATCATAGCGCCCCTAGATATCCA
binds: [1] | [2] | [3]
